According to article PMC4357711:

Legend:
DDX1 (DDX1-728) [1] = molecular target: T1, DDX1 (DDX1-728) (Homo sapiens, UniProt Q92499 1-728); test: EMSA
T1 sequence: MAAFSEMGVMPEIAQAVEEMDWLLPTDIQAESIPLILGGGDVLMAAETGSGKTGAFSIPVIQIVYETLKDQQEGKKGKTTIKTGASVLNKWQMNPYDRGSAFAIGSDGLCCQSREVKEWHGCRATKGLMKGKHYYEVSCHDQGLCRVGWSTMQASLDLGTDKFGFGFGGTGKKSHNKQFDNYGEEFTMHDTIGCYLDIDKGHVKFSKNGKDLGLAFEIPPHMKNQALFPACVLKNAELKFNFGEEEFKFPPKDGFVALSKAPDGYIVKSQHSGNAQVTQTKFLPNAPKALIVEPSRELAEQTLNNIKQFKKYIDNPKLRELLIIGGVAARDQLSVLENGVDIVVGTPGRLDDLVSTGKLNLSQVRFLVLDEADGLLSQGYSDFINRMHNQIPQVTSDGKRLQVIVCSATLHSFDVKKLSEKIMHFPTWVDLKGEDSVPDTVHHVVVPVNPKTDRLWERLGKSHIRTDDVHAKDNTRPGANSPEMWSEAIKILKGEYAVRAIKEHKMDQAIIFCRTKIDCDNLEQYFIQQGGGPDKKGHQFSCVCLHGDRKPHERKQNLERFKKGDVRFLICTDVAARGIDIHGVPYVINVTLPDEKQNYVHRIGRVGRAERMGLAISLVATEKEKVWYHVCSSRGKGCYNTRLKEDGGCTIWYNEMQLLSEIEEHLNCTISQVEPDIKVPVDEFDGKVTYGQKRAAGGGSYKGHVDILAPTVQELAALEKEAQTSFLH

DDX1 (DDX1-728) [2] = molecular target: T1, DDX1 (DDX1-728); test: mantdADP displacement fluorescence titration, global fit

Binder | binding result (DDX1 (DDX1-728) [1]) | Kd (DDX1 (DDX1-728) [2])
AGCACCGUAAAGA (ssRNA) [13mer mixed sequence RNA, FAM] | binds | 
AAAAAAAAAA (ssRNA) [10mer polyA RNA] |  | 360 ± 120 nM
UUUUUUUUUU (ssRNA) [10mer polyU RNA, FAM] | binds | 
